Experimental data published in publication PMC10273338.

Target: BAG3 (Bcl-2 associated athanogene protein 3) (human) (UniProt O95817)
Test: SPR; BIACORE X; BAG3 amine-coupled to a CM5 chip (3400 RU); running buffer 10 mM HEPES pH 7.4, 150 mM NaCl, 3 mM EDTA, 0.005% P20; 10 uL/min; Langmuir 1:1 fit

BAG3 (Bcl-2 associated athanogene protein 3), O95817 1-575 (natural protein; other documents disagree on this pair), sequence (O95817 whole entry): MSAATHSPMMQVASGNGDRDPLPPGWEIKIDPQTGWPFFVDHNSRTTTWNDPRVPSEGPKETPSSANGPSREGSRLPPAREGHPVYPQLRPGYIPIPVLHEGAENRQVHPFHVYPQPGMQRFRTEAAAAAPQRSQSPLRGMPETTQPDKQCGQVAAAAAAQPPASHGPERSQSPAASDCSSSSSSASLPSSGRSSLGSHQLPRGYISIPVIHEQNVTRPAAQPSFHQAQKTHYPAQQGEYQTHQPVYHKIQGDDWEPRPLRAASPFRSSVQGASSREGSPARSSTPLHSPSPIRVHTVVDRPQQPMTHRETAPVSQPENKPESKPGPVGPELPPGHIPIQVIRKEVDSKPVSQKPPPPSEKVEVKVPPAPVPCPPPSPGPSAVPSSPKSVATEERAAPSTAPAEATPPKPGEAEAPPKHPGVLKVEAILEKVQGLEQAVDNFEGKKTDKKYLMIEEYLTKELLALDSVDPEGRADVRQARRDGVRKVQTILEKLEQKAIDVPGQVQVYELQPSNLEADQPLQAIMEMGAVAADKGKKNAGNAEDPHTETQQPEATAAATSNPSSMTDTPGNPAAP

- Ka: 5.3e+07 M⁻¹
- Kd: 19 nM
- koff: 0.0003 s⁻¹
- kon: 16000 M⁻¹ s⁻¹
Substance: BAG3 (Bcl-2 associated athanogene protein 3), O95817 1-575 (natural protein; other documents disagree on this pair)
